Test results taken from article PMC11835246, “Capsid transfer of the retrotransposon Copia controls structural synaptic plasticity in Drosophila” (PLOS Biology, 2025).

B1: Copia^Gag capsid protein (wild type), auto-processed from His6-SUMO-Copia^Gag+PR (natural protein)
chain: not shown
notes: Copia retrotransposon Gag (capsid CA, residues 1-186, and nucleocapsid NC, residues 186-270), Drosophila; product of auto-processing of the short spliced form Copia^Gag+PR, whose protease part is cut off in E. coli; Limits 1-270 put together from the stated CA (1-186) and NC (186-270) domains; the cleavage site between Gag and PR is not otherwise stated; Carries co-purified RNA unless this is …
B2: Copia^GagΔNC (domain or fragment)
chain: not shown
notes: Copia retrotransposon Gag, Drosophila, capsid (CA) region only; residue H186 mutated to a stop codon in the pSMT3_His6-SUMO-Copia^Gag+PR plasmid, so the chain ends at residue 185 and lacks the NC (Zn-finger) domain; also called Copia^gag-ΔNC variant; not shown: His6-SUMO, N-terminal, cleaved

Assays:
[1] = target: the molecule itself; assay: negative-stain EM; purified Copia^Gag after removal of His6-SUMO, with co-purified RNA, 0.8 mg/ml, 1% uranyl acetate; capsid-like particles of 30 nm to more than 120 nm
[2] = target: B1; assay: SEC; Superose 6 Increase 10/300 GL after overnight Ulp1 digestion; 25 mM HEPES pH 7.4, 150 mM NaCl, 10% glycerol, 100 uM ZnCl2, 500 mM imidazole, 2 mM 2-mercaptoethanol; assembled capsids elute at fraction 7, unassembled protein at fractions 24 to 26; details: both partners purified

Question: Does B1 bind [1]?
Answer: Result: binds

Question: Does B2 bind [2]?
Answer: Result: binds
